Reference: paper PMC11284795, “Development of Zalfermin, a Long-Acting Proteolytically Stabilized FGF21 Analog” (Journal of Medicinal Chemistry, 2024)

T1: mouse beta-klotho (KLB) on HEK293 cells (mouse, UniProt Q99N32 1-1043)
T1 sequence (looked up): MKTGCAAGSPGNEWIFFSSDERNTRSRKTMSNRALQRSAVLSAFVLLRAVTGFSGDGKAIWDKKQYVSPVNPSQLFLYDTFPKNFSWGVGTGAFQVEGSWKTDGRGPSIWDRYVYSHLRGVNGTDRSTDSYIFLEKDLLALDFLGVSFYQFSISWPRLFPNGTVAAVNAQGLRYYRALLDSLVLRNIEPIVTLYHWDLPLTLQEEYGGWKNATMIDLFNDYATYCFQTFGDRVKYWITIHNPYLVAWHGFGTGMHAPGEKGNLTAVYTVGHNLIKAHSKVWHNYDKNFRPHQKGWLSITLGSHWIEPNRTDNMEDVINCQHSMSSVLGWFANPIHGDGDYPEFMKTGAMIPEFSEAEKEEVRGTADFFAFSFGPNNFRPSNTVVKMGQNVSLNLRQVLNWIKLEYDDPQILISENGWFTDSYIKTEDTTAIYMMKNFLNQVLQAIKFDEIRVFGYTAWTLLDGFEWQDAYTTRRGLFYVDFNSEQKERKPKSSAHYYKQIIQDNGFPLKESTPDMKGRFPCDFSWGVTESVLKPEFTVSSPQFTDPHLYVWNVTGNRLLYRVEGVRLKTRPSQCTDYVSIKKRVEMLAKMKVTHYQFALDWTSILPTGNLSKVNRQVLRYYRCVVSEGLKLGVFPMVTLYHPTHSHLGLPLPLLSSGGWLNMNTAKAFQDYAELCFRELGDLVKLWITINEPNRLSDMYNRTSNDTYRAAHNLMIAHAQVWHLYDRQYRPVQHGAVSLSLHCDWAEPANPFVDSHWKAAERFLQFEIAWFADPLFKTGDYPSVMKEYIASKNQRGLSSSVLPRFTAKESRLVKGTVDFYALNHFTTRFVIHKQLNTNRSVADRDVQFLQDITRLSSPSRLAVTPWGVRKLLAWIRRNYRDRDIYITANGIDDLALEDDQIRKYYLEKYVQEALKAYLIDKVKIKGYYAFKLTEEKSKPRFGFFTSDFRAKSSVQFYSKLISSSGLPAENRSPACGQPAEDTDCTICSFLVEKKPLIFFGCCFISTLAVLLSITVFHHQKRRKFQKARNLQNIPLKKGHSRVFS


Legend:
[1] = target: T2, FGFR1c/KLB: ectodomain of human FGFR1c fused to Fc, with human beta-klotho (human, UniProt P11362 22-376; Q86Z14 53-996); experiment: AlphaScreen or HTRF; competition: biotinylated FGF21 on streptavidin donor beads, ectodomain of human FGFR1c, FGFR2c, FGFR3c or FGFR4 fused to Fc on Protein A acceptor beads, human KLB protein added; signal inhibited by increasing doses of FGF21 analog; 0.1% ovalbumin; indirect measure of binding affinity, reported as IC50; settings: both partners purified
T2 construct: ectodomain of human fibroblast growth factor receptor 1, c-isoform (FGFR1c); human beta-klotho (KLB, printed there as BKL) protein; FGFR-Fc on Protein A acceptor beads, KLB added in solution; the bought KLB is, as I recall, the extracellular domain; also called FGF-receptor complex; source: bought: R&D Systems (both proteins)

[2] = target: cynomolgus monkey beta-klotho (KLB) on HEK293 cells (cynomolgus monkey); experiment: cell-based or functional assay
[3] = target: T3, human beta-klotho (KLB) on HEK293 cells (human, UniProt Q86Z14 1-1044); experiment: cell-based or functional assay
[4] = target: T1, mouse beta-klotho (KLB) on HEK293 cells; experiment: cell-based or functional assay
[5] = target: FGFR3c/KLB: ectodomain of human FGFR3c fused to Fc, with human beta-klotho (human, UniProt P22607 23-375; Q86Z14 53-996); experiment: cell-based or functional assay
[6] = target: T2, FGFR1c/KLB: ectodomain of human FGFR1c …; experiment: cell-based or functional assay
[7] = target: T3, human beta-klotho (KLB) on HEK293 cells; experiment: cell-based or functional assay; remark: listed apart in the source
[8] = target: BSA (albumin of the FAP incubations) (bovine, UniProt P02769 25-607); experiment: cell-based or functional assay
BSA (albumin of the FAP incubations), sequence (P02769 25-607): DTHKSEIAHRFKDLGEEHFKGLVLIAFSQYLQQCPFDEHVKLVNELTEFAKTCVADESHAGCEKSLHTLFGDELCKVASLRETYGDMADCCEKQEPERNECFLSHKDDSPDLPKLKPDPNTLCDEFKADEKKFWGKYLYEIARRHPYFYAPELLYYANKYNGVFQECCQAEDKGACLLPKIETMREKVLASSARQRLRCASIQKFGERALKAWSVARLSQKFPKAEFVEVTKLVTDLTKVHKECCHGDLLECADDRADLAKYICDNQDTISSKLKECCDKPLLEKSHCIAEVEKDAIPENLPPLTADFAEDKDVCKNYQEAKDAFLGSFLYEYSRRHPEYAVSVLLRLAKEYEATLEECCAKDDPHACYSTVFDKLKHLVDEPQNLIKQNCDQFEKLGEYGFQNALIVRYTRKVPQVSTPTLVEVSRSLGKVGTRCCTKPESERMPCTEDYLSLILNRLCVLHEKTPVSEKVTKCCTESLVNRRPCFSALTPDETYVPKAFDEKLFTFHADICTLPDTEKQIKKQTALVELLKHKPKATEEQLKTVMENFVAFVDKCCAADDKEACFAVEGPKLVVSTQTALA

[9] = target: human serum albumin (HSA) (human, UniProt P02768 25-609); experiment: cell-based or functional assay
[10] = target: the molecule itself; experiment: AF4-MALS; 15 at 49-88 mg/mL in 10 mM phosphate, pH 8.2 with 2% glycerol, 1 uL injected; running buffer 10 mM phosphate pH 8.2 with 10 mM NaCl; analysed again after dilution to 5 mg/mL

Binder | pIC50 [1] | mean EC50 of ERK phosphorylation in HEK293 cells overexpressing cynomolgus monkey KLB [2] | mean EC50 of ERK phosphorylation in HEK293 cells overexpressing human KLB (species qualification) [3] | mean EC50 of ERK phosphorylation in HEK293 cells overexpressing mouse KLB [4] | potency EC50 of ERK phosphorylation in Ba/F3 cells overexpressing human KLB and FGFR3c (chimera with the kinase domain of FGFR1c), 0% HSA [5] | potency EC50 of ERK phosphorylation in Ba/F3 cells overexpressing human KLB and FGFR1c, 0% HSA [6] | potency (EC50) of ERK phosphorylation in HEK293 cells transfected with human KLB, without HSA [7] | potency (EC50) of ERK phosphorylation in HEK293 cells transfected with human KLB, without HSA (with 0.1, 1.0 and 1.5% HSA: 1.4, 0.9 and 1.5 nM, Table 3) [7] | t1/2 of 15 toward degradation by FAP in vitro in the presence of 0.1% albumin (27–57 min for 1, 15 and 5 without albumin) [8] | potency (EC50) of ERK phosphorylation in HEK293/human KLB cells with 0.1, 1.0 and 1.5% HSA: 23, 195 and 198 nM (3.3 nM without HSA) [9] | binding result [10]
Met-FGF21 (1) (ligand, human, single amino acid N-terminal extension (-1M), giving the N-terminus MHPIP; human FGF21, mature 181-residue hormone (N-terminus HPIP, C-terminus Ser181); numbers count on: the mature protein; also called human FGF21 with N-terminal Met extension; -1M; source: E. coli BL21 (DE3)-derived strain, inclusion bodies, purified (Q Sepharose FF, Phenyl FF, Source 30Q where needed)) MHPIPDSSPLLQFGGQVRQRYLYTDDAQQTEAHLEIREDGTVGGAADQSPESLLQLKALKPGVIQILGVKTSRFLCQRPDGALYGSLHFDPEACSFRELLLEDGYNVYQSEAHGLPLHLPGNKSPHRDPAPRGPARFLPLPGLPPALPEPPGILAPQPPDVGSSDPLSMVGPSQGRSPSYAS | 6.56 ± 0.89 | 1.8 nM | 3 nM | 0.3 nM | 10.8 nM | 3.7 nM | 1.6 nM |  |  |  | 
stabilized backbone (4): -1A, 121Q, 168L FGF21 (ligand, human, single amino acid N-terminal extension (-1A), giving the N-terminus AHPIP; human FGF21, mature 181-residue hormone; numbers count on: the mature protein; also called stabilized backbone of 15; source: E. coli BL21 (DE3)-derived strain, inclusion bodies, purified (Q Sepharose FF, Phenyl FF, Source 30Q where needed)) AHPIPDSSPLLQFGGQVRQRYLYTDDAQQTEAHLEIREDGTVGGAADQSPESLLQLKALKPGVIQILGVKTSRFLCQRPDGALYGSLHFDPEACSFRELLLEDGYNVYQSEAHGLPLHLPGQKSPHRDPAPRGPARFLPLPGLPPALPEPPGILAPQPPDVGSSDPLSLVGPSQGRSPSYAS | 6.18 ± 0.1 |  |  |  |  |  |  | 2 nM |  |  | 
zalfermin (NNC0194-0499, 15) (ligand, human, C18 diacid gGlu-OEG-OEG-C2DA-Ac side chain on Cys180, single amino acid N-terminal extension (-1Ala), giving the N-terminus AHPIP; human FGF21, mature 181-residue hormone; numbers count on: the mature protein; 20.3 kDa; also called FGF21 analog 15; source: E. coli BL21 (DE3)-derived strain, inclusion bodies, purified; side chain conjugated to the Cys, purified by anion exchange (MonoQ)) AHPIPDSSPLLQFGGQVRQRYLYTDDAQQTEAHLEIREDGTVGGAADQSPESLLQLKALKPGVIQILGVKTSRFLCQRPDGALYGSLHFDPEACSFRELLLEDGYNVYQSEAHGLPLHLPGQKSPHRDPAPRGPARFLPLPGLPPALPEPPGILAPQPPDVGSSDPLSLVGPSQGRSPSYCS | 6.13 ± 0.8 | 1.4 nM | 2.8 nM | 0.1 nM | 11.9 nM | 4.1 nM | 3.3 nM |  | 7.47 h | 198 nM | binds
FGF21 analog 18 (-1A, 121Q, 168L, 181C; C18 fatty diacid on 181C) (ligand, human, C18 diacid gGlu-OEG-OEG-C2DA-Ac side chain on Cys181, single amino acid N-terminal extension (-1A), giving the N-terminus AHPIP; human FGF21, mature 181-residue hormone; numbers count on: the mature protein; source: E. coli BL21 (DE3)-derived strain, inclusion bodies, purified; side chain conjugated to the Cys, purified by anion exchange (MonoQ)) AHPIPDSSPLLQFGGQVRQRYLYTDDAQQTEAHLEIREDGTVGGAADQSPESLLQLKALKPGVIQILGVKTSRFLCQRPDGALYGSLHFDPEACSFRELLLEDGYNVYQSEAHGLPLHLPGQKSPHRDPAPRGPARFLPLPGLPPALPEPPGILAPQPPDVGSSDPLSLVGPSQGRSPSYAC | 5.72 ± 0.02 |  |  |  |  |  | 39 nM |  |  |  | 
FGF21 analog 17 (-1A, 121Q, 168L, 180C, des181; C18 fatty diacid on 180C) (ligand, human, C18 diacid gGlu-OEG-OEG-C2DA-Ac side chain on Cys180, single amino acid N-terminal extension (-1A), giving the N-terminus AHPIP; human FGF21, mature hormone without its last residue Ser181; numbers count on: the mature protein; source: E. coli BL21 (DE3)-derived strain, inclusion bodies, purified; side chain conjugated to the Cys, purified by anion exchange (MonoQ)) AHPIPDSSPLLQFGGQVRQRYLYTDDAQQTEAHLEIREDGTVGGAADQSPESLLQLKALKPGVIQILGVKTSRFLCQRPDGALYGSLHFDPEACSFRELLLEDGYNVYQSEAHGLPLHLPGQKSPHRDPAPRGPARFLPLPGLPPALPEPPGILAPQPPDVGSSDPLSLVGPSQGRSPSYC | 5.79 ± 0.05 |  |  |  |  |  | 3.9 nM |  |  |  | 
